Measurements from patent publication US20230149509A1 (Genentech, published 2023).
Residue numbers refer to the chain shown, from its start.

T1: CD122/CD132 on human lymphocytes (CD8+ T cells and NK cells in human PBMCs) (human, UniProt P31785 23-369)
T1 sequence 1: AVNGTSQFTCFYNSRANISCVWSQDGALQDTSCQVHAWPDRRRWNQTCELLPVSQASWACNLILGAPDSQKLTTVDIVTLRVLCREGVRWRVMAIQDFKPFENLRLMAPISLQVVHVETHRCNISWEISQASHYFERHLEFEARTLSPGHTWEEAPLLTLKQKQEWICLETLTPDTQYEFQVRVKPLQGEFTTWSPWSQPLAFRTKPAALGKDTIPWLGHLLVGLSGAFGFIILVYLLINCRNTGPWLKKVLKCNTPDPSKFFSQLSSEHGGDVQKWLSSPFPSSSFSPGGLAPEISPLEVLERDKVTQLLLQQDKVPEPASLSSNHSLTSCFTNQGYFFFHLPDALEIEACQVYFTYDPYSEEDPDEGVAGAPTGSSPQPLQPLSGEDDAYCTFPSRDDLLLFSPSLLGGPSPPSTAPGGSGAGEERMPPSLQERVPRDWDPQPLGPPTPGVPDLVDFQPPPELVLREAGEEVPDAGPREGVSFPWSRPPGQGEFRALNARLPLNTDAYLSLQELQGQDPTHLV
T1 sequence 2: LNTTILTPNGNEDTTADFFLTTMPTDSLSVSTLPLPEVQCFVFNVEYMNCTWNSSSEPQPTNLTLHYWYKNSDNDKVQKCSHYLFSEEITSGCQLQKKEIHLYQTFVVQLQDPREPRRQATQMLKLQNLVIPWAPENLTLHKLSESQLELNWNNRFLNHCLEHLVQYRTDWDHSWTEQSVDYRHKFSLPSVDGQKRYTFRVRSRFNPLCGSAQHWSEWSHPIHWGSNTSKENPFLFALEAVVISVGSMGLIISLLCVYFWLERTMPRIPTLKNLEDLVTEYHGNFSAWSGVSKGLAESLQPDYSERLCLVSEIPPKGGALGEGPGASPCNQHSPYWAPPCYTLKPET

T2: CD122/CD132 on cynomolgus monkey lymphocytes (CD8+ T cells and NK cells in cynomolgus PBMCs) (cynomolgus monkey, UniProt Q38J85 27-551; A0A2K5VGJ6 23-369)
T2 sequence (looked up) 1: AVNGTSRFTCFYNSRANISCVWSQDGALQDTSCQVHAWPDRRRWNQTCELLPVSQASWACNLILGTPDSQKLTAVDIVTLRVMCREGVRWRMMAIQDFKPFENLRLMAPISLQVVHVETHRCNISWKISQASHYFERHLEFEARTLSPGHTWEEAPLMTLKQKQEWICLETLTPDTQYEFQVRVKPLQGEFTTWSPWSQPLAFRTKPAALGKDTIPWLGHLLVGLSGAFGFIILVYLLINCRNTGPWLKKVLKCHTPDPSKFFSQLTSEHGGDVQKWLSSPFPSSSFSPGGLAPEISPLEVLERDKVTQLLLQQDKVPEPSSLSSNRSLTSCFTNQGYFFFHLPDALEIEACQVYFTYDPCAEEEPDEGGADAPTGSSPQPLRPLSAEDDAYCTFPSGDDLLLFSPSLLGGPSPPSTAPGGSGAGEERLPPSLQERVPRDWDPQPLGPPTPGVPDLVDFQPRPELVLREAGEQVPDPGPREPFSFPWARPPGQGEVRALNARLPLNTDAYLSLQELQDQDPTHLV
T2 sequence (looked up) 2: T1 sequence 2 with T14A, A16T, T22S, H141R, T228S, A326P

T3: mouse FcRn (mouse, UniProt Q61559 22-297; P01887 21-119)
T3 construct: The construct is not described
T3 sequence (looked up): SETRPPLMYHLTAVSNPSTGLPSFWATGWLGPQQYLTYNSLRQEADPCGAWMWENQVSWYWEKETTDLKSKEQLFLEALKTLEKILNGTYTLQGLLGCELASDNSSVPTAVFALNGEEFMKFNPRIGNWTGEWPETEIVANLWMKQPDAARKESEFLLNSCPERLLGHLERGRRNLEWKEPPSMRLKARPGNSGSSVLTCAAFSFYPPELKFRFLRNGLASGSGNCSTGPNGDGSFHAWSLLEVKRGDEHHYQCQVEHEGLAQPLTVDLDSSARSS
T3 sequence (b2m, looked up): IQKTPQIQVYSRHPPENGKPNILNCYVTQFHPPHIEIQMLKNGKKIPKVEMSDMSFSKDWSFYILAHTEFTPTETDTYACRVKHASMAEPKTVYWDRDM

B1: XENP24306 (Fc fusion)
chain 1: NWVNVISDLKKIEDLIQSMHIDATLYTESNVHPSCKVTAMKCFLLELQVISLESGDASIHDTVQDLIILANNSLSSNGNVTESGCKECEELEEKNIKEFLQSFVHIVQMFINTSGGGGSEPKSSDKTHTCPPCPAPPVAGPSVFLFPPKPKDTLMISRTPEVTCVVVDVKHEDPEVKFNWYVDGVEVHNAKTKPREEEYNSTYRVVSVLTVLHQDWLNGKEYKCKVSNKALPAPIEKTISKAKGQPREPQVYTLPPSREEMTKNQVSLTCDVSGFYPSDIAVEWESDGQPENNYKTTPPVLDSDGSFFLYSKLTVDKSRWEQGDVFSCSVLHEALHSHYTQKSLSLSPGK
chain 2: ITCPPPMSVEHADIWVKSYSLYSRERYICNSGFKRKAGTSSLTECVLNKATNVAHWTTPSLKCIRGGGGSEPKSSDKTHTCPPCPAPPVAGPSVFLFPPKPKDTLMISRTPEVTCVVVDVKHEDPEVKFNWYVDGVEVHNAKTKPREEQYNSTYRVVSVLTVLHQDWLNGKEYKCKVSNKALPAPIEKTISKAKGQPREPQVYTLPPSREQMTKNQVKLTCLVKGFYPSDIAVEWESNGQPENNYKTTPPVLDSDGSFFLYSKLTVDKSRWQQGNVFSCSVLHEALHSHYTQKSLSLSPGK
notes: All experiments used a mixture of XENP24306 (~82%) and XENP32803 (~18%), printed as 'XENP24306+XENP32803'; Each result is written once for each of the two members; also called XmAb24306; XENP24306+XENP32803 (the ~82% component of the tested combination)
B2: XENP32803 (Fc fusion)
chain 1: B1 chain 1
chain 2: B1 chain 2 with K100T
notes: All experiments used a mixture of XENP24306 (~82%) and XENP32803 (~18%), printed as 'XENP24306+XENP32803'; Each result is written once for each of the two members; also called XENP24306+XENP32803 (the ~18% component of the tested combination); IL15/IL15Rα heterodimeric protein

Experiments:
[1] = molecular target: T1, CD122/CD132 on human lymphocytes (CD8+ …); assay: cell-based or functional assay
[2] = molecular target: T2, CD122/CD132 on cynomolgus monkey …; assay: cell-based or functional assay
cynomolgus monkey FcRn = molecular target: T4, cynomolgus monkey FcRn (cynomolgus monkey, UniProt Q8SPV9 24-297; Q8SPW0 21-119); assay: BLI, pH 6.0; tested as the mixture
T4 construct: The construct is not described
T4 sequence (Q8SPV9 24-297 limits assumed, chain 1 of 2): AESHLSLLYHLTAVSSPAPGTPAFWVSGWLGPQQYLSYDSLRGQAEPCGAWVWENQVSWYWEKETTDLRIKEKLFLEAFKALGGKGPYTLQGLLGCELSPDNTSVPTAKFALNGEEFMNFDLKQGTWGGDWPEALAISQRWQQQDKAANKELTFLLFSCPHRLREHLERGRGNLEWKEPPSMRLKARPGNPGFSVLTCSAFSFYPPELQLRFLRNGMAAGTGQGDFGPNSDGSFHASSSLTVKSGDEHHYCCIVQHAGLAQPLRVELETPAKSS
T4 sequence (Q8SPW0 21-119 limits assumed, chain 2 of 2): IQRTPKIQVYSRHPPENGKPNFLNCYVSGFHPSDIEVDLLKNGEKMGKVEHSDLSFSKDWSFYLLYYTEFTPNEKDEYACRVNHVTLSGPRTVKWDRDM

mouse FcRn = molecular target: T3, mouse FcRn; assay: BLI, pH 6.0; tested as the mixture
human FcRn = molecular target: T5, human FcRn (human, UniProt P55899 24-297; P61769 21-119); assay: BLI, pH 6.0; tested as the mixture
T5 construct: The construct is not described; also called human neonatal Fc receptor
T5 sequence (P55899 24-297 limits assumed, chain 1 of 2): as the sequence (Q8SPV9 24-297 limits assumed, chain 1 of 2) above, with D39N, Q44E, S99G, G189S, N190S, M217L, T269S counted along it
T5 sequence (P61769 21-119 limits assumed, chain 2 of 2): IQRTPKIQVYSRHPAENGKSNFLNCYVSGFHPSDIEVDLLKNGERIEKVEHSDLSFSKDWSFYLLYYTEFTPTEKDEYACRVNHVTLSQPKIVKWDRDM

[3] = molecular target: T6, human complement component 1q (C1q) (human, UniProt P02745 23-245; P02746 28-253; P02747 29-245); assay: BLI; tested as the mixture XENP24306+XENP32803
T6 construct: The subunit composition is from general knowledge; also called human C1q
T6 sequence (P02745 23-245 limits assumed, chain 1 of 3): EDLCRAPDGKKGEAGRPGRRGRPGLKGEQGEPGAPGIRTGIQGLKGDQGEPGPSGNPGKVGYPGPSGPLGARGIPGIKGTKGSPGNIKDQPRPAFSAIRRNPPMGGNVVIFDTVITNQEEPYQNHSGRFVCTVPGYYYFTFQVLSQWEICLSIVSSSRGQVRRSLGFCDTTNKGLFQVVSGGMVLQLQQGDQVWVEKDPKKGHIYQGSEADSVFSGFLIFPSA
T6 sequence (P02746 28-253 limits assumed, chain 2 of 3): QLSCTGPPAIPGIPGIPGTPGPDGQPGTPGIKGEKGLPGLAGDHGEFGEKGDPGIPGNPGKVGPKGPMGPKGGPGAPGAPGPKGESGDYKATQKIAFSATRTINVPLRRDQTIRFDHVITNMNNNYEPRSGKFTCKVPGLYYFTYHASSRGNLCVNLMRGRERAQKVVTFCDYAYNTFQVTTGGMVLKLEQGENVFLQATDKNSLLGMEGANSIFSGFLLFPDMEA
T6 sequence (P02747 29-245 limits assumed, chain 3 of 3): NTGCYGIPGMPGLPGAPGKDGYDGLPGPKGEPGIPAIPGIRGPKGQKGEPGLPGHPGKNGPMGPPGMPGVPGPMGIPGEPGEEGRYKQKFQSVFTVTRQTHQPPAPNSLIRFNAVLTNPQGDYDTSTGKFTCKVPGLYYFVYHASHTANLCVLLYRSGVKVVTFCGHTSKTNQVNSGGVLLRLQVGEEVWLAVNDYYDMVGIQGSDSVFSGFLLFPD

Binder	CD8+ T cell proliferation (Ki67+) in human PBMCs, EC50 [1] [µg/mL]	NK-cell proliferation (Ki67+) in human PBMCs, EC50 [1] [µg/mL]	potency on CD8+ terminal effector T cell proliferation (Ki67) in human PBMC, fold lower than XENP22853 (wild-type IL-15/wild-type IL-15Rα heterodimer Fc fusion) [1] [fold]	potency on CD8+ terminal effector T cell proliferation (Ki67) in human PBMC, fold lower than recombinant wild-type IL-15 [1] [fold]	CD8+ T cell proliferation in cynomolgus monkey PBMCs, EC50 [2] [µg/mL]	NK-cell proliferation in cynomolgus monkey PBMCs, EC50 [2] [µg/mL]	binding result (cynomolgus monkey FcRn)	binding result (mouse FcRn)	binding result (human FcRn)	binding result [3]
B1	12.7	1.2	~400	~900	3.8	0.5	binds	binds	binds	no binding
B2	12.7	1.2	~400	~900	3.8	0.5	binds	binds	binds	no binding
